# Experimental data reported in article PMC8252471, “Rerouting and Improving Dauc‐8‐en‐11‐ol Synthase from Streptomyces venezuelae to a High Yielding Biocatalyst” (Chemistry (Weinheim an Der Bergstrasse, Germany), 2021).
# Where a chain is given by its changes, count along the chain named. Names may count otherwise.
# B1: DcS (dauc-8-en-11-ol synthase; formerly isodauc-8-en-11-ol synthase, IdS) (Streptomyces venezuelae ATCC 10712) (protein)
# chain: MTVRAVELPQLWMPYPLRVNPYLSALREESETWAREMGMLGGEGPSARGAIWTRSQFHAMTVELLTAWTLPDASLAGLRLNHRFNIWALAWDDYFASTFKQTGDLPGALDFTARLHAFLRPEADARSPEPVNAVERGIADLQKHLFPPRLAHWRQEFNLALAHYIDAGVQELTNSRGGRVPHLIEYAPFRRESFAAHTAPYSVELATGARIPEQLRHTRTVHALLDAFMDVMGLANDVASYEREVHEERDVNNLVVVIGTSLGITLHQAVPAALHMVNARMRDFEHLRHHELPPLVDRFGLRPDEREELETWLGGAASFLSGLHAWYTGAPRYAPTDHSVPEQRQRGGSEGAADRHAPAASSLARGAEAQTCGPTASAGSA
# notes: motifs: D92 in 92DDYFA, R190, N236 in 236NDVASYERE, H58, H197, Y241
# B2: DcS (dauc-8-en-11-ol synthase; formerly isodauc-8-en-11-ol synthase, IdS) (Streptomyces venezuelae ATCC 10712; H197F/Y241F) (protein)
# chain: B1 chain with H197F, Y241F
# notes: motifs: D92 in 92DDYFA, R190, N236 in 236…, H58, H197, Y241
# Substrate: CC(C)=CCC/C(C)=C/CC/C(C)=C/CO[P@@](=O)(O)OP(=O)(O)O
# Experiment: enzyme kinetics
# Assay type: biochemical, Streptomyces venezuelae
Protein,Km [mM],kcat [s⁻¹]
B1,2.90 ± 0.02,35.6 ± 2.9
B2,5.95 ± 0.02,65.5 ± 8.6
